Patent US20240209061A1, “FUSION PROTEINS AND USES THEREOF” (Pfizer Inc., priority 2020, published 2024)

Legend:
[1] = Thermal stability by Differential Scanning calorimetry (DSC); assay type: physicochemical; conditions: PBS
[2] = tested on: peripheral blood mononuclear cells (PBMC); assay: RESTORE cytokine release assay in absence of TCR stimulation; assay type: cell-based, human; set-up: IFNγ: unit not given beside the values
Protocol: The ability of variant CD80-Fc fusion proteins to promote cytokine release in the absence of TCR stimulation was assessed in the RESTORE (RESetting T cells to Original Reactivity) assay (Römer et al, Blood, 2011). Freshly isolated peripheral blood mononuclear cells (PBMC) from whole blood of several healthy donors were cultured for 48 hours at […] within RPMI1640 media supplemented with 10% autologous plasma, 10 mM HEPES, 1× GlutaMAX, 1× PenStrep, beta2-mercaptoethanol, NEAA and sodium pyruvate. Following the 48-hour incubation, PBMC were pelleted and resuspended at a final concentration of 10^6/ml with indicated soluble drug. Treatment was allowed for 48 hours then supernatant was harvested and assessed in IL-2 and IFNγ ELISA according to manufacturer's protocol (BioLegend).
Positive controls included CD28 superagonist anti-CD28 clone TGN1412 as IgG1 and IgG4 isotypes and anti-CD3. […] Values shown are the average of 3 technical replicates. D=Donor.

[3] = Pharmacokinetics in cynomolgus monkeys; assay type: in vivo; conditions: cynomolgus monkey
Protocol: PK of variant CD80-Fc fusion proteins was assessed in non-human primates. […] A ligand binding assay using the Gyrolab Immunoassay platform was used to quantitate CD80-Fc molecules in cynomolgus monkey serum following dose administration. CD80-Fc constructs were captured onto the Gyrolab Bioaffy CD using a biotinylated monoclonal anti-human CD80 antibody (Thermo Fisher Cat #13-0809-82). Bound CD80-Fc constructs were detected using a mouse anti-human Fc antibody (SouthernBiotech Cat #9040-01) that was labeled with Alexa Fluor 647. Sample concentrations were determined by interpolation from a calibration curve that were fit using a 5-parameter logistic regression model. The range of quantitation of the assay was 100-15000 ng/ml in 100% serum. […] AUC (Area Under the Curve); Cmax (Maximum Concentration observed); Tmax (Time of Maximum concentration observed)

With “CD80-K89Q-D90Q-E23C-A26C-Fc: disulfide stabilized variant CD80-Fc fusion protein (K89Q, D90Q, E23C, A26C)” the “DSC Tm1” value [1] was 67.28 ± 0.2 °C, the IFNγ ([2]; Table 20, D222, 1 μg/ml) was 7.3 and the IFNγ ([2]; Table 20, D222, 10 μg/ml) was 4.3. The IL-2 ([2]; Table 20, D222, 10 μg/ml) was 6.7, the IFNγ ([2]; Table 20, D281, 1 μg/ml) was 3.0 and the IL-2 ([2]; Table 20, D281, 1 μg/ml) was 2.7. For the same substance, the IFNγ ([2]; Table 20, D281, 10 μg/ml) was 3.7, the IL-2 ([2]; Table 20, D281, 10 μg/ml) was 5.7 and the IFNγ ([2]; Table 20, D462, 1 μg/ml) was 7.0. The IL-2 ([2]; Table 20, D462, 1 μg/ml) was 2.0, the IFNγ ([2]; Table 20, D462, 10 μg/ml) was 7.3 and the IL-2 ([2]; Table 20, D462, 10 μg/ml) was 3.0. For the same substance, the IFNγ ([2]; Table 20, D547, 1 μg/ml) was 4.3, the IL-2 ([2]; Table 20, D547, 1 μg/ml) was 13.3 and the IFNγ ([2]; Table 20, D547, 10 μg/ml) was 3.0. For the same substance, the IL-2 ([2]; Table 21, D132, 1.9 μg/ml) was 0.0, the IL-2 ([2]; Table 21, D132, 5.6 μg/ml) was 0.0 and the IL-2 ([2]; Table 21, D132, 16.7 μg/ml) was 0.3. For the same substance, the IL-2 ([2]; Table 21, D149, 1.9 μg/ml) was 0.0, the IL-2 ([2]; Table 21, D149, 5.6 μg/ml) was 0.0 and the IL-2 ([2]; Table 21, D149, 16.7 μg/ml) was 0.0. For the same substance, the IL-2 ([2]; Table 21, D149, 50 μg/ml) was 0.0, the IL-2 ([2]; Table 21, D379, 1.9 μg/ml) was 29.0 and the IL-2 ([2]; Table 21, D379, 5.6 μg/ml) was 2.3. It also gave an IL-2 ([2]; Table 21, D379, 16.7 μg/ml) of 0.0, an IL-2 ([2]; Table 21, D379, 50 μg/ml) of 0.0 and an IL-2 ([2]; Table 21, D399, 1.9 μg/ml) of 0.0. The IL-2 ([2]; Table 21, D399, 5.6 μg/ml) was 2.0, the IL-2 ([2]; Table 21, D399, 16.7 μg/ml) was 0.0 and the IL-2 ([2]; Table 21, D399, 50 μg/ml) was 0.0. For the same substance, the IL-2 ([2]; Table 21, D417, 1.9 μg/ml) was 3.0, the IL-2 ([2]; Table 21, D417, 5.6 μg/ml) was 0.0 and the IL-2 ([2]; Table 21, D417, 16.7 μg/ml) was 0.3. For the same substance, the IL-2 ([2]; Table 21, D417, 50 μg/ml) was 0.0, the IL-2 ([2]; Table 21, D518, 1.9 μg/ml) was 0.0 and the IL-2 ([2]; Table 21, D518, 5.6 μg/ml) was 2.0. The IL-2 ([2]; Table 21, D518, 16.7 μg/ml) was 1.7, the IL-2 ([2]; Table 21, D518, 50 μg/ml) was 2.7 and the IFNγ ([2]; Table 22, D132, 1.9 μg/ml) was 0.0. For the same substance, the IFNγ ([2]; Table 22, D132, 5.6 μg/ml) was 78.0, the IFNγ ([2]; Table 22, D132, 16.7 μg/ml) was 0.0 and the IFNγ ([2]; Table 22, D132, 50 μg/ml) was 0.0. The IFNγ ([2]; Table 22, D149, 1.9 μg/ml) was 0.0, the IFNγ ([2]; Table 22, D149, 5.6 μg/ml) was 0.0 and the IFNγ ([2]; Table 22, D149, 16.7 μg/ml) was 0.0. The IFNγ ([2]; Table 22, D149, 50 μg/ml) was 41.3, the IFNγ ([2]; Table 22, D379, 1.9 μg/ml) was 0.0 and the IFNγ ([2]; Table 22, D379, 5.6 μg/ml) was 0.0. For the same substance, the IFNγ ([2]; Table 22, D379, 16.7 μg/ml) was 0.0, the IFNγ ([2]; Table 22, D379, 50 μg/ml) was 0.0 and the IFNγ ([2]; Table 22, D399, 1.9 μg/ml) was 0.0. It also gave an IFNγ ([2]; Table 22, D399, 5.6 μg/ml) of 0.0, an IFNγ ([2]; Table 22, D399, 16.7 μg/ml) of 0.0 and an IFNγ ([2]; Table 22, D399, 50 μg/ml) of 4.3. It also gave an IFNγ ([2]; Table 22, D417, 1.9 μg/ml) of 0.0, an IFNγ ([2]; Table 22, D417, 5.6 μg/ml) of 0.0 and an IFNγ ([2]; Table 22, D417, 16.7 μg/ml) of 0.0. The IFNγ ([2]; Table 22, D417, 50 μg/ml) was 0.0, the IFNγ ([2]; Table 22, D518, 1.9 μg/ml) was 0.0 and the IFNγ ([2]; Table 22, D518, 5.6 μg/ml) was 0.0. The IFNγ ([2]; Table 22, D518, 16.7 μg/ml) was 20.7, the IFNγ ([2]; Table 22, D518, 50 μg/ml) was 0.0 and the AUC ([3]; 3 mpk IV) was 3680 µg·h/mL. The “AUC fold-increase over WT” value ([3]; 3 mpk IV) was 1.48, the Cmax ([3]; 3 mpk IV) was 107 µg/mL and the Tmax ([3]; 3 mpk IV) was 4.98 min. The AUC ([3]; 15 mpk IV) was 27800 µg·h/mL, the “AUC fold-increase over WT” value ([3]; 15 mpk IV) was 2.00 and the Cmax ([3]; 15 mpk IV) was 627 µg/mL. For the same substance, the Tmax ([3]; 15 mpk IV) was 4.98 min, the AUC ([3]; 50 mpk IV) was 72200 µg·h/mL and the “AUC fold-increase over WT” value ([3]; 50 mpk IV) was 1.95. For the same substance, the Cmax ([3]; 50 mpk IV) was 1790 µg/mL and the Tmax ([3]; 50 mpk IV) was 4.98 min.
